From patent US20170137467A1
Where a chain is given by its changes, count along the chain named. Values belong to the binder of their own block, whether it stands above or below them.

How the values were obtained:
BC2T K4E (human) = target: T1, BC2T K4E (human); test: library pulldown, LC-MS of supernatant; ratio vs GFP-Nb control (0=captured, 1=not captured)
T1 sequence (peptide, N-terminal acetyl, C-terminal amide): PDREAAVSHWQQ

BC2T S8K = target: T2, BC2T S8K; test: positional peptide library pulldown on immobilised Nb, LC-MS of supernatant; signal ratio to control GFP-Nb (1 = not captured, near 0 = captured)
T2 sequence (peptide, N-terminal acetyl; C-terminal amide): PDRKAAVKHWQQ

BC2T S8D = target: T3, BC2T S8D; test: as above
T3 sequence (peptide, N-terminal acetyl; C-terminal amide): PDRKAAVDHWQQ

BC2T Q11P = target: T4, BC2T Q11P; test: as above
T4 sequence (peptide, N-terminal acetyl; C-terminal amide): PDRKAAVSHWPQ

[1] = target: mCherry tagged with the improved BC2T variations; test: capture on the BC2 nanotrap, SDS-PAGE and Coomassie, FIG. 19a
BC2T R3S = target: T5, BC2T R3S; test: positional peptide library pulldown on immobilised Nb, LC-MS of supernatant; signal ratio to control GFP-Nb (1 = not captured, near 0 = captured)
T5 sequence (peptide, N-terminal acetyl; C-terminal amide): PDSKAAVSHWQQ

BC2T R3Q = target: T6, BC2T R3Q; test: as above
T6 sequence (peptide, N-terminal acetyl; C-terminal amide): PDQKAAVSHWQQ

ratio (BC2T K4E (human)): 0.9
B1: BC2-NbR106S (VHH, not shown: small tags and cut ends)
VHH: QVQLVESGGGLVQPGGSLTLSCTASGFTLDHYDIGWFRQAPGKEREGVSCINNSDDDTYYADSVKGRFTIFMDNAKDTVYLQMNSLKPEDTAIYYCAEARGCKRGSYEYDFWGQGTQVTVSS

ratio (BC2T S8K): 0.8
ratio (BC2T S8D): 0.8
ratio (BC2T Q11P): 0.6
percent protein bound [1]: < 100%
B2: BC2 nanobody (VHH, not shown: small tags and cut ends)
VHH: B1 VHH with S106R

ratio (BC2T R3S): 0.8
ratio (BC2T R3Q): 0.8
B3: BC2-NbR106E (VHH)
VHH: B1 VHH with S106E
